Among the data in publication PMC12069617 are stoichiometry N and stoichiometry N (p300 per SRC3) values, retold here.

For experiment [1], the target named is progesterone receptor isoform A (PR-A), full-length, Strep II-tagged (human) (UniProt P06401). Kind of experiment: SEC-MALS. (In general: Size exclusion chromatography separates by hydrodynamic size, large species first.)
The target of experiment [2] is steroid receptor coactivator 3 (SRC3), full-length, Strep II-tagged (human) (UniProt Q9Y6Q9). Kind of experiment: SEC-MALS.
Sequence of steroid receptor coactivator 3 (SRC3), full-length, Strep II-tagged (human) (Q9Y6Q9 whole entry): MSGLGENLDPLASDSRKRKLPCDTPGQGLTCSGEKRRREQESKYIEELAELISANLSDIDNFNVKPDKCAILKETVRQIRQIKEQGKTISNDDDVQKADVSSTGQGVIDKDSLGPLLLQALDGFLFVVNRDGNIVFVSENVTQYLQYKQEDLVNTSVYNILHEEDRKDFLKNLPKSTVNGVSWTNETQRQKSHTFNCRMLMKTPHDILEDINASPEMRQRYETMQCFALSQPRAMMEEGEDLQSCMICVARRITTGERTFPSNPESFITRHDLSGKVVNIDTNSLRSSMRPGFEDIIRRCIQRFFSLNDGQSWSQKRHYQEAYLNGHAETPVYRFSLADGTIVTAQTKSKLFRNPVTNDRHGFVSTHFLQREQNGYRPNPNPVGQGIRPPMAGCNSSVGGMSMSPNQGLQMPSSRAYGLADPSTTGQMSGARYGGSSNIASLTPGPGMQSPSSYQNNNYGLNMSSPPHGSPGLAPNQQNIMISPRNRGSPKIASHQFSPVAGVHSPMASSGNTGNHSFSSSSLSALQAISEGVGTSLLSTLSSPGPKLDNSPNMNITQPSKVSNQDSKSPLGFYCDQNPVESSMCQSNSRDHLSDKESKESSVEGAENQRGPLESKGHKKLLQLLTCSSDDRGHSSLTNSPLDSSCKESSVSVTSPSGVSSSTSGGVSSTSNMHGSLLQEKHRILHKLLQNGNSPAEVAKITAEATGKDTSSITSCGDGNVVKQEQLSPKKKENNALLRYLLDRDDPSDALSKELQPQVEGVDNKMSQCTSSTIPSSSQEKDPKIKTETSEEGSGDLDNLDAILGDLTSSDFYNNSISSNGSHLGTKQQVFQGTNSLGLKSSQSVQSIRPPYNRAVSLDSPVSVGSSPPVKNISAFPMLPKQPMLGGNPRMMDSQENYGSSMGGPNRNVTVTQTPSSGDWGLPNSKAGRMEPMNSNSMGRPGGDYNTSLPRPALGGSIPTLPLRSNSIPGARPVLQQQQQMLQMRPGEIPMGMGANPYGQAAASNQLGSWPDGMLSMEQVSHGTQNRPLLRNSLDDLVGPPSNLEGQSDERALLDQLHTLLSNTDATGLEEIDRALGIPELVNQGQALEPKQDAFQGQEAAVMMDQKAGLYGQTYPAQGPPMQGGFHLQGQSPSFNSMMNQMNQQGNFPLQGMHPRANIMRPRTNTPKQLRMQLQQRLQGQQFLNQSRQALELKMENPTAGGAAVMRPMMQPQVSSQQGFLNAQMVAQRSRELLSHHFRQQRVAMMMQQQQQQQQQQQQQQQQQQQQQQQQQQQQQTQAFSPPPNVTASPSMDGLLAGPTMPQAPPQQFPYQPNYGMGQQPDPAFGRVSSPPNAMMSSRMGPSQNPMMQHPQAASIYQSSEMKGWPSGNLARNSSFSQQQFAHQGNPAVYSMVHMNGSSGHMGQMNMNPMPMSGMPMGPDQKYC

Sequence of progesterone receptor isoform A (PR-A), full-length, Strep II-tagged (human) (P06401 165-933): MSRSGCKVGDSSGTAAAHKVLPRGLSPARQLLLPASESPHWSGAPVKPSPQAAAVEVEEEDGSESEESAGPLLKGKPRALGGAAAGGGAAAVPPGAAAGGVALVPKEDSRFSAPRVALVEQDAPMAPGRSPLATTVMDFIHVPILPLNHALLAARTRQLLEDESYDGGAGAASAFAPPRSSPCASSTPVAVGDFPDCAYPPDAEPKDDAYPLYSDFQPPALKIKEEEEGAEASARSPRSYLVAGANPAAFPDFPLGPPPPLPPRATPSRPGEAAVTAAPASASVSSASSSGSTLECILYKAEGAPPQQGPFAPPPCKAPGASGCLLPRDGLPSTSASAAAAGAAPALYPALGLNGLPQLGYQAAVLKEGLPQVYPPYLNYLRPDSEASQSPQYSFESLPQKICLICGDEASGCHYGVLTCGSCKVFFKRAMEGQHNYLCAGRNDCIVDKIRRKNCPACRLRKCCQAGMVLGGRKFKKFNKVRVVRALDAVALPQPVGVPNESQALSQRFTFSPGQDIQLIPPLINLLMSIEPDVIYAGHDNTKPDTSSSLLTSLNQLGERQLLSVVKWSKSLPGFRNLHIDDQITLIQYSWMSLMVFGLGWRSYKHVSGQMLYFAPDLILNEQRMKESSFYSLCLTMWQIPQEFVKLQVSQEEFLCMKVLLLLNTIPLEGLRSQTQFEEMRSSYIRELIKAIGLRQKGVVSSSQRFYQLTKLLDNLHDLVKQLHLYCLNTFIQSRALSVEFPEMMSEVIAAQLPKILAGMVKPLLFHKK

As for “histone acetyltransferase p300, full-length, Strep II-tagged, Q09472 1-2414”, in experiment [1], the stoichiometry N – broadly, a count of units in the complex or per binding partner – came out at 0.5 p300 per PR. Also, in experiment [2], the stoichiometry N (p300 per SRC3) worked out at 1.
